Assay results published in article doi:10.1101/2025.06.12.659326.

Biological target: dynein light intermediate chain 2 (LIC2)
Experiment: anti-HA IP of LIC2-HA, GFP blot
Details: reference: GFP-WT OCLN; sites S490

other: reduction vs WT [%] | Substance
25 | occludin (OCLN) (from UniProt Q16625) GFP-S490A
25 | occludin (OCLN) (from UniProt Q16625) GFP-S490D
